Assay results published in PMC11539623 (Biochimica et biophysica acta. Gene regulatory mechanisms, 2023).

Target: T1, His-tagged full length Taf14 (S. cerevisiae, UniProt P35189 1-244, labeled with His-Tag Labeling Kit RED-tris-NTA (2nd Generation))
T1 sequence (looked up): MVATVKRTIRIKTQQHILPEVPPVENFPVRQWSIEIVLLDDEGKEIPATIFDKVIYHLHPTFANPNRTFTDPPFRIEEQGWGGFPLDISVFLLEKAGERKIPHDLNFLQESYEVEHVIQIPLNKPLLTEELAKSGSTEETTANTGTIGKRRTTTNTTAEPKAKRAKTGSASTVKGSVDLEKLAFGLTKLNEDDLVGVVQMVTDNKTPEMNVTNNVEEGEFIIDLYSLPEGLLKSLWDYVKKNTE
Assay: MST

GHSLLLSIKLPG (peptide, UniProt P18480 782-793, looked up) [Snf5 ET domain binding motif peptide (aa 782-793)]
fold weaker binding than the isolated Taf14ET: 7 fold
